Assay results taken from FireProtDB (doi:10.1002/pro.5560030904).
Values joined by “and” are separate entries in the source; they are usually repeats but may differ in a detail not shown here. Identical values can stand only once.

B1: Fructose-bisphosphate aldolase A, P00883 (parent)
chain: MPHSHPALTPEQKKELSDIAHRIVAPGKGILAADESTGSIAKRLQSIGTENTEENRRFYRQLLLTADDRVNPCIGGVILFHETLYQKADDGRPFPQVIKSKGGVVGIKVDKGVVPLAGTNGETTTQGLDGLSERCAQYKKDGADFAKWRCVLKIGEHTPSALAIMENANVLARYASICQQNGIVPIVEPEILPDGDHDLKRCQYVTEKVLAAVYKALSDHHIYLEGTLLKPNMVTPGHACTQKYSHEEIAMATVTALRRTVPPAVTGVTFLSGGQSEEEASINLNAINKCPLLKPWALTFSYGRALQASALKAWGGKKENLKAAQEEYVKRALANSLACQGKYTPSGQAGAAASESLFISNHAY

Variants of: B1
Conditions: Oryctolagus cuniculus; pH 7.4; Thermal; DSC; sodium phosphate 10 mM; transition: 3; reversible: yes; structure 1ADO; whole UniProt chain shown

For D129N, the Tm was 45.6 °C and 47 °C, the “change of melting temperature, mutant - wild type (higher = more stable)” value (shortened to “change of melting temperature, mutant”) was -10.1 °C and -11.7 °C and the “unfolding enthalpy (calorimetric)” value was 80 kcal/mol and 83 kcal/mol.

In the case of D129A, the Tm is reported as 46.8 °C, the “change of melting temperature, mutant” value is reported as -11.9 °C and the “unfolding enthalpy (calorimetric)” value is reported as 71 kcal/mol.

With D129Q the Tm was 45.9 °C and 47.1 °C, the “change of melting temperature, mutant” value was -9.8 °C and -11.6 °C and the “unfolding enthalpy (calorimetric)” value was 67 kcal/mol and 77 kcal/mol.

With D129G the Tm was 44 °C and 46 °C, the “change of melting temperature, mutant” value was -11.7 °C and -12.7 °C and the “unfolding enthalpy (calorimetric)” value was 67 kcal/mol and 73 kcal/mol.

For D129V, the Tm was 43.9 °C and 46.5 °C, the “change of melting temperature, mutant” value was -11.8 °C and -12.2 °C and the “unfolding enthalpy (calorimetric)” value was 91 kcal/mol and 78 kcal/mol.
